US20220402980A1 (published 2022)
Read-outs that look alike come from different tables or passages of the source. Bridges are numbered along the chain shown (N, C = ends). Where no end group is shown, it is not given here. [ ]: non-standard residue; d: D form. maleimide‑NOTA = 1,4,7-triazacyclononane-1,4-bis-acetic acid-7-maleimidoethylacetamide; Lys(N3) = [N-]=[N+]=NCCCC[C@H](N)C(=O)O; Pra = C#CC[C@H](N)C(=O)O

T1: cell-surface expressed αvβ6 on human cells (5637 bladder cancer cells, HaCaT keratinocytes, BxPC-3 pancreatic … (human, UniProt P06756 31-1048; P18564 22-788)
T1 chain 1: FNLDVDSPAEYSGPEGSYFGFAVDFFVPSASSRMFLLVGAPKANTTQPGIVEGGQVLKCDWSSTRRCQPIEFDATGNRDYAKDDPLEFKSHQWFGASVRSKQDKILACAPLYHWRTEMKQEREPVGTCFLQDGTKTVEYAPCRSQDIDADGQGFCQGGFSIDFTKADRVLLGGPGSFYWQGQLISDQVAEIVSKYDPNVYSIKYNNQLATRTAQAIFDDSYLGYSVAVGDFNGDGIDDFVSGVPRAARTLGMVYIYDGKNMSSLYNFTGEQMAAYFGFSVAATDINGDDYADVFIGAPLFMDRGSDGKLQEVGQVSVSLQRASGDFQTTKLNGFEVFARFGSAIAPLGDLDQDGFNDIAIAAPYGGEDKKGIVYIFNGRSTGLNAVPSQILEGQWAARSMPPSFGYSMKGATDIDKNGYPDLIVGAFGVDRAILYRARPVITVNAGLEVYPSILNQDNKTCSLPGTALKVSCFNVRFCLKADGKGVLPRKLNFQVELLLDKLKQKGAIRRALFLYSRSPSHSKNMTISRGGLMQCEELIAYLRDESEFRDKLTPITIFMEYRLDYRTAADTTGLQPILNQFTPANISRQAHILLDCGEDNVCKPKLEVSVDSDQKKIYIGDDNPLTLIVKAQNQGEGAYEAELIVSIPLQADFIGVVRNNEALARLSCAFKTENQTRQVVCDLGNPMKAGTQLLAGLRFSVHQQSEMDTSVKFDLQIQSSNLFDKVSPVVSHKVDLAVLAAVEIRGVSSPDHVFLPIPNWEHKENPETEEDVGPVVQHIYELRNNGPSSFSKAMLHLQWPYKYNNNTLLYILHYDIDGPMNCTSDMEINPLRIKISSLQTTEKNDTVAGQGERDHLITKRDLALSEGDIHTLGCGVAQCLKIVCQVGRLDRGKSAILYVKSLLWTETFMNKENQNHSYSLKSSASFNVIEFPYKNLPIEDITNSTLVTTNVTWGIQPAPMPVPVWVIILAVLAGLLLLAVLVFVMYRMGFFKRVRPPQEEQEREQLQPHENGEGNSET
T1 chain 2: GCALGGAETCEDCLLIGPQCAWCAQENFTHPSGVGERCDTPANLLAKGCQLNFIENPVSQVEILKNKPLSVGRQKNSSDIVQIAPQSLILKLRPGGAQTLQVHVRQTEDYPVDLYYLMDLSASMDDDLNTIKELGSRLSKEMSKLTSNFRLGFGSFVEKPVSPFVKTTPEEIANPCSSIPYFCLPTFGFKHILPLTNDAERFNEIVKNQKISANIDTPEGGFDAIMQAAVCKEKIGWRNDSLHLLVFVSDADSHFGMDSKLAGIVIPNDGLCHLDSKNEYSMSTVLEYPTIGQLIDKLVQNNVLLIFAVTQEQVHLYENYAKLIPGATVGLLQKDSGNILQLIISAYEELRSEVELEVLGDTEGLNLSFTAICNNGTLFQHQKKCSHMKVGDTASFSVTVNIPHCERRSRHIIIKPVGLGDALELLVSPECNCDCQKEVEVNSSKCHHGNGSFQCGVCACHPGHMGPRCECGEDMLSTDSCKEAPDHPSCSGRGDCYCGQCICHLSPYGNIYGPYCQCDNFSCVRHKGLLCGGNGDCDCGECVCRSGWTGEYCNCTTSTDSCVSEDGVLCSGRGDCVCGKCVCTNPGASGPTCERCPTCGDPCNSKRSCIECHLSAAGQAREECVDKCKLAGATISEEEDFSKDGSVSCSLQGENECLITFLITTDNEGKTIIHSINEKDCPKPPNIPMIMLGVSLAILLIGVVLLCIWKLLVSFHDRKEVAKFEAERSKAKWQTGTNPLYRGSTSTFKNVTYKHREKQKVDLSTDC

T2: recombinant human αvβ6 extracellular domain (R&D Systems) (human, UniProt P06756 31-992; P18564 22-709)
T2 chain 1: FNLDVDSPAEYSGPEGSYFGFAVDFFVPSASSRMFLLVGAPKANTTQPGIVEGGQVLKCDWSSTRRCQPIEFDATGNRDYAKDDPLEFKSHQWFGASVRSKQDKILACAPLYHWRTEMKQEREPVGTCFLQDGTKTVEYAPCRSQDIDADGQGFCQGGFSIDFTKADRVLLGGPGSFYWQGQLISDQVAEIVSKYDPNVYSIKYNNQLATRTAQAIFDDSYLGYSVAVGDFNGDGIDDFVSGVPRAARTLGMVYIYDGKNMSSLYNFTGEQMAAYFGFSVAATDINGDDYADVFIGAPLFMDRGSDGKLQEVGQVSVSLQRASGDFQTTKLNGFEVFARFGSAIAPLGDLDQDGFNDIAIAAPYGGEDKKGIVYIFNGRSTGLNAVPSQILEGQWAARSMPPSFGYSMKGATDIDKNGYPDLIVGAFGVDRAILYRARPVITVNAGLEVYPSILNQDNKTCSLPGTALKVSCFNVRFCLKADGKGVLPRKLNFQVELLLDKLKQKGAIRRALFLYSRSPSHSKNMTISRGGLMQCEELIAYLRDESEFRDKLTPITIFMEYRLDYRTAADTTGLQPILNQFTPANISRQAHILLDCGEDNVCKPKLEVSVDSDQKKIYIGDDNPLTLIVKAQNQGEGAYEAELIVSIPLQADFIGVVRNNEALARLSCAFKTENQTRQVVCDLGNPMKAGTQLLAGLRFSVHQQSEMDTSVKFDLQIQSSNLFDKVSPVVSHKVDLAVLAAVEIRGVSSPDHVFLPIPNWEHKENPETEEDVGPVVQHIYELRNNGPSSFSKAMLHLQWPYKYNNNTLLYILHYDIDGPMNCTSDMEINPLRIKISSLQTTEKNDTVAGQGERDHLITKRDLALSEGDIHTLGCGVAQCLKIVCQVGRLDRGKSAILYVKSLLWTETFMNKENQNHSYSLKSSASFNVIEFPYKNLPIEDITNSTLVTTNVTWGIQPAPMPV
T2 chain 2: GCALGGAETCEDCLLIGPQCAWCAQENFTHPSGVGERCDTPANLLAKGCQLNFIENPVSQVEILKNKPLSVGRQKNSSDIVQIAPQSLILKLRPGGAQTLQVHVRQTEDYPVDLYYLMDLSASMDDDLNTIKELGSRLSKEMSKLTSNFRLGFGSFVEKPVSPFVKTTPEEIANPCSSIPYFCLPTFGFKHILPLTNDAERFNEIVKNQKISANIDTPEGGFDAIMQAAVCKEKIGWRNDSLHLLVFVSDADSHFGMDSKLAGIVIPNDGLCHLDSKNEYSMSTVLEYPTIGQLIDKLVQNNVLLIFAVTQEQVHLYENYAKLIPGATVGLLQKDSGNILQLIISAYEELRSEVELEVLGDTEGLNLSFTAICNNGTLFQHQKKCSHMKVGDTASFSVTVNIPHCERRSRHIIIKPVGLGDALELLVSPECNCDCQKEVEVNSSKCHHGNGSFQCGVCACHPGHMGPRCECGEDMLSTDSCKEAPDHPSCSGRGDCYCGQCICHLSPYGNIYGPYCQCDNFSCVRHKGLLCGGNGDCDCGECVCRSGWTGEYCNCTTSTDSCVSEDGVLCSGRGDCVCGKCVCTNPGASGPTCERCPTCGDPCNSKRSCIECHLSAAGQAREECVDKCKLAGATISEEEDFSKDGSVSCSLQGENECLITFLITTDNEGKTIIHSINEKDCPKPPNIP

T3: αvβ8 integrin (purified, coated on microtiter plates) (UniProt P06756 31-992; P26012 43-684)
T3 chain 1: T2 chain 1
T3 chain 2: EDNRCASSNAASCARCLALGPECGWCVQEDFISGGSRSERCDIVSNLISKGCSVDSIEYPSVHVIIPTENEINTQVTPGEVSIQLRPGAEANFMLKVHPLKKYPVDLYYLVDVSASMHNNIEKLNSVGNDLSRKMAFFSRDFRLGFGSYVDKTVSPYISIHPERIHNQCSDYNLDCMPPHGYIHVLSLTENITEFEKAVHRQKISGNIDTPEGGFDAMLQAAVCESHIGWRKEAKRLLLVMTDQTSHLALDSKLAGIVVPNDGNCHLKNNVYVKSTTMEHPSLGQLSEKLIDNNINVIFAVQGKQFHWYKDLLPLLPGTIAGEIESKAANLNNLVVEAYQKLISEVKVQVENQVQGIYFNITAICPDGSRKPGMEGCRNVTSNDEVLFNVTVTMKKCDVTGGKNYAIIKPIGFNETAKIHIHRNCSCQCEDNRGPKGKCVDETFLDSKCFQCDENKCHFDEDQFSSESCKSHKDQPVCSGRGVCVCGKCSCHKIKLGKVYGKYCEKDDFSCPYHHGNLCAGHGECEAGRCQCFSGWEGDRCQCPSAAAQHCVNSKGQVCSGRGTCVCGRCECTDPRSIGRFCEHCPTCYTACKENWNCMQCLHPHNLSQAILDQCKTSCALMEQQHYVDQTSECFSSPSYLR


How the values were obtained:
[1] = target: T1, cell-surface expressed αvβ6 on human …; assay: FACS
[2] = target: T2, recombinant human αvβ6 extracellular …
[3] = target: T2, recombinant human αvβ6 extracellular …
[4] = target: T1, cell-surface expressed αvβ6 on human …; assay: FACS
[5] = target: T3, αvβ8 integrin (purified, coated on …)
[6] = target: T2, recombinant human αvβ6 extracellular …

Binder	Ki [3] [nM]	IC50 [4] [nM]	further results
Ac-FETLRGDLRILSILR[Pra]QNL[Lys(N3)]KELQD-NH2 (triazole 16-20) [peptide 5 (triazole-stapled CgA39-63-derived peptide)]	0.93	3.6	IC50 [1]: 25 nM; Ki [2]: 0.84 nM
C(IRDye 800CW maleimide)FETLRGDLRILSILR[Pra]QNL[Lys(N3)]KELQD-NH2 (triazole 17-21) [5a-IRDye (peptide 5a coupled via Cys to maleimide-IRDye 800CW)]	–	–	EC50 [5]: 1.9 nM; EC50 [6]: 2.8 nM
FETLRGDLRILSILRHQNLLKELQD [peptide 4]	–	16.9	IC50 [1]: 80 nM
FETLRGDERILSILRHQNLLKELQD [peptide 1 (CgA-derived peptide, residues 39-63), synthetic]	–	640	–
C(maleimide‑NOTA)FETLRGDLRILSILR[Pra]QNL[Lys(N3)]KELQD-NH2 (triazole 17-21) [NOTA-5a (peptide 5a coupled to maleimide-NOTA)]	2.31	–	–
CFETLRGDLRILSILR[Pra]QNL[Lys(N3)]KELQD-NH2 (triazole 17-21) [peptide 5a]	1.71	–	–
CFETLRGEERILSILRHQNLLKELQD [peptide 2a]	–	–	Ki [2]: > 100 nM
C(maleimide‑NOTA)FETLRGEERILSILRHQNLLKELQD [NOTA-2a (peptide 2a coupled to maleimide-NOTA)]	> 1000	–	–
